Data published in patent US20210347914A1.

Key:
[1] = molecular target: GFAP purified from human brain (human) (UniProt P14136); assay: chemiluminescent sandwich ELISA; GFAP-2 capture, HRP-GFAP-6 detection; GFAP standard 320 pg/ml
[2] = molecular target: GFAP purified from human brain (human) (UniProt P14136); assay: chemiluminescent sandwich ELISA; GFAP-2 capture, HRP-GFAP-6 detection; GFAP standard 20 pg/ml
[3] = molecular target: GFAP purified from human brain (human) (UniProt P14136); assay: chemiluminescent sandwich ELISA; GFAP-2 capture, HRP-GFAP-6 detection; GFAP standard 640 pg/ml
[4] = molecular target: GFAP purified from human brain (human) (UniProt P14136); assay: chemiluminescent sandwich ELISA; GFAP-2 capture, HRP-GFAP-6 detection; GFAP standard 40 pg/ml
[5] = molecular target: GFAP purified from human brain (human) (UniProt P14136); assay: chemiluminescent sandwich ELISA; GFAP-2 capture, HRP-GFAP-6 detection; GFAP standard 160 pg/ml
[6] = molecular target: GFAP purified from human brain (human) (UniProt P14136); assay: chemiluminescent sandwich ELISA; GFAP-2 capture, HRP-GFAP-6 detection; GFAP standard 80 pg/ml
[7] = molecular target: GFAP purified from human brain (human) (UniProt P14136); assay: chemiluminescent sandwich ELISA; GFAP-2 capture, HRP-GFAP-6 detection; GFAP standard 10 pg/ml

GFAP purified from human brain (human), sequence (P14136 whole entry): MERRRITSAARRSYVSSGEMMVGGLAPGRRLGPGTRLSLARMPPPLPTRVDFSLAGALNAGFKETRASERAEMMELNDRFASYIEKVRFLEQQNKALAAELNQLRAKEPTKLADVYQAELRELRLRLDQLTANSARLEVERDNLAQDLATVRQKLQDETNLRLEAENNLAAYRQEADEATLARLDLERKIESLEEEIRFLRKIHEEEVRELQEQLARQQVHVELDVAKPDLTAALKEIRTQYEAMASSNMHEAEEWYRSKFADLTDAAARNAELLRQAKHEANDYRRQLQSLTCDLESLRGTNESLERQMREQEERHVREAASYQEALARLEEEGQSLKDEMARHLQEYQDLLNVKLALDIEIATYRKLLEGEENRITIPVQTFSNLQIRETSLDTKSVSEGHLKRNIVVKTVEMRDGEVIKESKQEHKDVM

B1: GFAP-6 (antibody, V domains shown)
VH: EVQLQQSGAEFVKPGASVKLSCTASGFNIKDTDMHWVRQRPEQGLESIGLIDPAIGNTKYDPKFQGKATITADTSSNAAYLQLSSLTSEDTAVYYCARSDRYLAWFAYWGQGTLVTVSA
VL: DIVMTQSPATLSVTPGDRVSLSCRASQSISDFLHWYQQKSHGSPRLLIKYSSQSISGIPSRFSGSGSGSDFTLSINSVEPEDVGVYYCQNGHTFPYTFGGGTKLEIK
Relative Light Unit (rlu) [1]: 487000 rlu | Relative Light Unit (rlu) [2]: 7420 rlu | Relative Light Unit (rlu) [3]: 1.12e+06 rlu | Relative Light Unit (rlu) [4]: 22700 rlu | Relative Light Unit (rlu) [5]: 208000 rlu | Relative Light Unit (rlu) [6]: 72700 rlu | Relative Light Unit (rlu) [7]: 3640 rlu
